Assay results published in patent publication US20250186594A1 (BRIGHT PEAK THERAPEUTICS, published 2025).

T1: IL-18Rα/β heterodimer (Fc fused human IL-18Rα mixed with Fc fused human IL-18Rβ) (human, UniProt Q13478 19-329; O95256 20-356, limits assumed)
T1 construct: Alpha and beta Fc fusions were mixed and pre-incubated for 30 min before capture on anti-human IgG; also called alpha/beta heterodimer IL-18 receptor; heterodimeric human IL-18 receptor alpha (CD218a) and IL-18R accessory protein (IL-18RAP/CDw218b); not shown: Fc
T1 sequence (looked up) 1: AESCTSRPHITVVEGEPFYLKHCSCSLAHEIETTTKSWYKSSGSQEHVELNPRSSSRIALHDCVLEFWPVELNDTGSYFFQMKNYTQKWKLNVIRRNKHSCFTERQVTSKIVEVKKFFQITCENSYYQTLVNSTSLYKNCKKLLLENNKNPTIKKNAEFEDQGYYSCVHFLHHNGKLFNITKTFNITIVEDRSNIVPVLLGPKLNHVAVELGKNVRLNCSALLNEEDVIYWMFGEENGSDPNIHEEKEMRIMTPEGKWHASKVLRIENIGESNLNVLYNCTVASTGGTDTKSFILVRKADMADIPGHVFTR
T1 sequence (looked up) 2: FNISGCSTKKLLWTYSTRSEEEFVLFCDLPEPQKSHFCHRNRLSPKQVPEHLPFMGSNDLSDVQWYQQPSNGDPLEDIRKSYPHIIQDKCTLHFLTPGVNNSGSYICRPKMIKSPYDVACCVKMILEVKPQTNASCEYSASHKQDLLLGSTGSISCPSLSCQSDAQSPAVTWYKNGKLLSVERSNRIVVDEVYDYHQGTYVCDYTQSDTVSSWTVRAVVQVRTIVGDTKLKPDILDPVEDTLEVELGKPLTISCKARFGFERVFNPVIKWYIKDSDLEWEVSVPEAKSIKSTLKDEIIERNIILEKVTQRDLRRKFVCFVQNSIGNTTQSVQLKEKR

T2: Fc fused human IL-18Rα (human, UniProt Q13478 19-329, limits assumed)
T2 construct: also called IL-18Rα monomer; human IL-18 receptor alpha (CD218a); not shown: Fc
T2 sequence (looked up): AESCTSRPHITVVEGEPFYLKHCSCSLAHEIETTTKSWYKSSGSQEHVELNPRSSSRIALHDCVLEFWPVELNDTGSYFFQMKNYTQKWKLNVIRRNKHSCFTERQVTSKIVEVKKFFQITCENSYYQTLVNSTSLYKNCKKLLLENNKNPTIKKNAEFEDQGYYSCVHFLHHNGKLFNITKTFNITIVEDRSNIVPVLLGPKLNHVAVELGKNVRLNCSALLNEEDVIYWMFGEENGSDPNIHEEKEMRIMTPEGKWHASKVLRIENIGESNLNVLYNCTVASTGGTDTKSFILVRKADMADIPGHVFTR

T3: IL-18 receptor (IL-18R) on HEK-Blue IL18R reporter cells (UniProt Q13478 19-541; O95256 20-599, limits assumed)
T3 sequence (looked up) 1: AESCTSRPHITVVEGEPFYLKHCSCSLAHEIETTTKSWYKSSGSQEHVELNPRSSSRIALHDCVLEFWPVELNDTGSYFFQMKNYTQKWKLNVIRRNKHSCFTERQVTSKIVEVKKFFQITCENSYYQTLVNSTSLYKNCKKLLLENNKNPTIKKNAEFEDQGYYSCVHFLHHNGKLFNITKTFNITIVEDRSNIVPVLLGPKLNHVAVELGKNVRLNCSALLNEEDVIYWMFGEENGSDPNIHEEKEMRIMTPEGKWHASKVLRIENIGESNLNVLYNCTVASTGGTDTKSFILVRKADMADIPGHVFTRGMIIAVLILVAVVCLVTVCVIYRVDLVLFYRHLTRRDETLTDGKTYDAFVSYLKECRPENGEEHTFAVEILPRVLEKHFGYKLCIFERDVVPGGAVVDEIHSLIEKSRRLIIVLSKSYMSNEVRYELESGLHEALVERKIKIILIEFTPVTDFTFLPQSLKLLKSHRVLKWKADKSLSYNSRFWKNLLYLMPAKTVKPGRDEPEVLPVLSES
T3 sequence (looked up) 2: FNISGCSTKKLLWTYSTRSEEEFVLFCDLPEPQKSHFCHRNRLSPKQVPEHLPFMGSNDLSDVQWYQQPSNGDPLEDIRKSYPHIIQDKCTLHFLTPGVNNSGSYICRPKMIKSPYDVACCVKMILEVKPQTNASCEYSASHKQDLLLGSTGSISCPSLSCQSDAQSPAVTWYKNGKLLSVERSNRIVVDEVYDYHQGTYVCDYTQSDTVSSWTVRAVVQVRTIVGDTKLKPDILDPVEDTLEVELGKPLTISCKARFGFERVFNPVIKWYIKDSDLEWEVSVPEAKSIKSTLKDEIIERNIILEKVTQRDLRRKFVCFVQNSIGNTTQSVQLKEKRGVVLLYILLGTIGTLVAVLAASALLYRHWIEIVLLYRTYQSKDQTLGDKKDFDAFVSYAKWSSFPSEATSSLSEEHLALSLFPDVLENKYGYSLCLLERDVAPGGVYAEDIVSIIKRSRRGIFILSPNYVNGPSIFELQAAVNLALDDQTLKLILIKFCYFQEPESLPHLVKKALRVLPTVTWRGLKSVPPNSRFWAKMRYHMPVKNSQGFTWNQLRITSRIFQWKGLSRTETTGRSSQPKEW


What was measured:
[1] = target: T1, IL-18Rα/β heterodimer (Fc fused human …); test: SPR, Fc-IL-18Rα/β captured, heterogeneous ligand fit
Method: (§1) The interaction of the wild type and of modified IL-18 polypeptides with human IL-18 receptor subunits are measured with Surface Plasmon Resonance (SPR) technology. Anti-human IgG antibodies are bound by amine coupling onto a CM5 chip to capture 6 µg/mL of Fc fused human IL-18Rα, […] of Fc fused human IL-18Rβ, or […] of Fc fused human IL-18BP isoform a (IL-18BPa) for 30 min before capture. In other settings, […] of alpha and beta IL-18 receptors are mixed and pre-incubated for 30 min before capture of the alpha/beta heterodimer IL-18 receptor.
(§2) The kinetic binding of the IL-18 analytes are measured with a Biacore 8K instrument in two fold serial dilutions starting at […] down to 0.98 nM. Regeneration of the surface back to amine coupled anti IgG antibody is done after every concentration of analyte. To measure the protein association to the receptors, the samples are injected with a flow rate of […] for 60 s, followed by 300 s buffer only to detect the dissociation. The used running buffer is 1×PBS with 0.05% Tween20. The relative response units (RU, Y-axis) are plotted against time (s, X-axis) and analyzed in a kinetic 1:1 binding model for the monomer receptor binding and for the binding to the IL-18BP. A kinetic heterogenous ligand fit model is applied for the alpha/beta heterodimer binding.

Fc fused human IL-18Rα = target: T2, Fc fused human IL-18Rα; test: SPR, Fc-IL-18Rα captured, 1:1 fit
Method: as §1, §2

[2] = target: T3, IL-18 receptor (IL-18R) on HEK-Blue …; test: cell-based or functional assay

| Binder | Kd [1] [nM] | koff [1] [s⁻¹] | kon [1] [M⁻¹ s⁻¹] | Kd (Fc fused human IL-18Rα) [nM] | koff (Fc fused human IL-18Rα) [s⁻¹] | kon (Fc fused human IL-18Rα) [M⁻¹ s⁻¹] | EC50, HEK-Blue IL18R reporter [2] [nM] |
| --- | --- | --- | --- | --- | --- | --- | --- |
| IL-18 variant SEQ ID NO: 30 with 5 kDa PEG (E6K, V11I, C38A, K53A, T63A, C76A, C127A, C68-5kPEG) (ligand, 5 kDa PEG on Cys 68 (C68-5kPEG), also called 30 + PEG5) YFGKLKSKLSIIRNLNDQVLFIDQGNRPLFEDMTDSDARDNAPRTIFIISMYADSQPRGMAVAISVKCEKISTLSAENKIISFKEMNPPDNIKDTKSDIIFFQRSVPGHDNKMQFESSSYEGYFLAAEKERDLFKLILKKEDELGDRSIMFTVQNED | 2.2 | 0.000594 | 269000 | 158 | 0.0748 | 475000 | – |
| IL-18 variant SEQ ID NO: 59 with 30 kDa PEG (E6K, C38A, K53A, C68-30kDPEG) (ligand, 30 kDa PEG on Cys 68 (C68-30kDPEG), also called 59 + PEG30; 59 + PEG) YFGKLKSKLSVIRNLNDQVLFIDQGNRPLFEDMTDSDARDNAPRTIFIISMYADSQPRGMAVTISVKCEKISTLSCENKIISFKEMNPPDNIKDTKSDIIFFQRSVPGHDNKMQFESSSYEGYFLACEKERDLFKLILKKEDELGDRSIMFTVQNED | 8.02 | 0.00058 | 84500 | 352 | 0.0264 | 74600 | – |
| IL-18 variant SEQ ID NO: 57 (E6K, C38S, K53A) (ligand) YFGKLKSKLSVIRNLNDQVLFIDQGNRPLFEDMTDSDSRDNAPRTIFIISMYADSQPRGMAVTISVKCEKISTLSCENKIISFKEMNPPDNIKDTKSDIIFFQRSVPGHDNKMQFESSSYEGYFLACEKERDLFKLILKKEDELGDRSIMFTVQNED | 2.3 | 0.000816 | 535000 | 75 | 0.0133 | 95200 | 0.53 |
| IL-18 variant SEQ ID NO: 30 with 20 kDa PEG (E6K, V11I, C38A, K53A, T63A, C76A, C127A, C68-20kPEG) (ligand, 20 kDa PEG on Cys 68 (C68-20kPEG), also called 30 + PEG20) YFGKLKSKLSIIRNLNDQVLFIDQGNRPLFEDMTDSDARDNAPRTIFIISMYADSQPRGMAVAISVKCEKISTLSAENKIISFKEMNPPDNIKDTKSDIIFFQRSVPGHDNKMQFESSSYEGYFLAAEKERDLFKLILKKEDELGDRSIMFTVQNED | 5.49 | 0.000637 | 116000 | 379 | 0.0805 | 213000 | – |
| IL-18 variant SEQ ID NO: 60 (E6K, C38Q, K53A) (ligand) YFGKLKSKLSVIRNLNDQVLFIDQGNRPLFEDMTDSDQRDNAPRTIFIISMYADSQPRGMAVTISVKCEKISTLSCENKIISFKEMNPPDNIKDTKSDIIFFQRSVPGHDNKMQFESSSYEGYFLACEKERDLFKLILKKEDELGDRSIMFTVQNED | 0.49 | 0.000589 | 1.21e+06 | 9.85 | 0.0102 | 1.03e+06 | 0.203 |
| IL-18 variant SEQ ID NO: 57 with 30 kDa PEG (E6K, C38S, K53A, C68-30kDPEG) (ligand, 30 kDa PEG on Cys 68 (C68-30kDPEG), also called 57 + PEG30; 57 + PEG) YFGKLKSKLSVIRNLNDQVLFIDQGNRPLFEDMTDSDSRDNAPRTIFIISMYADSQPRGMAVTISVKCEKISTLSCENKIISFKEMNPPDNIKDTKSDIIFFQRSVPGHDNKMQFESSSYEGYFLACEKERDLFKLILKKEDELGDRSIMFTVQNED | 23 | 0.000787 | 33800 | 701 | 0.0267 | 37900 | – |
| IL-18 variant SEQ ID NO: 30 with 30 kDa PEG (E6K, V11I, C38A, K53A, T63A, C76A, C127A, C68-30kPEG) (ligand, 30 kDa PEG on Cys 68 (C68-30kPEG), also called 30 + PEG30; 30 + PEG) YFGKLKSKLSIIRNLNDQVLFIDQGNRPLFEDMTDSDARDNAPRTIFIISMYADSQPRGMAVAISVKCEKISTLSAENKIISFKEMNPPDNIKDTKSDIIFFQRSVPGHDNKMQFESSSYEGYFLAAEKERDLFKLILKKEDELGDRSIMFTVQNED | 15.7 | 0.000618 | 39400 | 770 | 0.0842 | 125000 | 0.23 |
| IL-18 variant SEQ ID NO: 61 (E6K, C38A, K53A, C76A) (ligand) YFGKLKSKLSVIRNLNDQVLFIDQGNRPLFEDMTDSDARDNAPRTIFIISMYADSQPRGMAVTISVKCEKISTLSAENKIISFKEMNPPDNIKDTKSDIIFFQRSVPGHDNKMQFESSSYEGYFLACEKERDLFKLILKKEDELGDRSIMFTVQNED | 1.01 | 0.0011 | 1.09e+06 | 30.4 | 0.0674 | 2.22e+06 | 0.084 |
| IL-18 variant SEQ ID NO: 60 with 30 kDa PEG (E6K, C38Q, K53A, C68-30kPEG) (ligand, 30 kDa PEG on Cys 68 (C68-30kPEG), also called 60 + PEG) YFGKLKSKLSVIRNLNDQVLFIDQGNRPLFEDMTDSDQRDNAPRTIFIISMYADSQPRGMAVTISVKCEKISTLSCENKIISFKEMNPPDNIKDTKSDIIFFQRSVPGHDNKMQFESSSYEGYFLACEKERDLFKLILKKEDELGDRSIMFTVQNED | 13.3 | 0.000789 | 68300 | 345 | 0.0195 | 66300 | – |
| IL-18 variant SEQ ID NO: 61 with 30 kDa PEG (E6K, C38A, K53A, C76A, C68-30kPEG) (ligand, 30 kDa PEG on Cys 68 (C68-30kPEG), also called 61 + PEG) YFGKLKSKLSVIRNLNDQVLFIDQGNRPLFEDMTDSDARDNAPRTIFIISMYADSQPRGMAVTISVKCEKISTLSAENKIISFKEMNPPDNIKDTKSDIIFFQRSVPGHDNKMQFESSSYEGYFLACEKERDLFKLILKKEDELGDRSIMFTVQNED | 15.5 | 0.000589 | 38100 | ~1000 | 0.0288 | 28700 | – |
| IL-18 variant SEQ ID NO: 62 (E6K, C38A, K53A, C127A) (ligand) YFGKLKSKLSVIRNLNDQVLFIDQGNRPLFEDMTDSDARDNAPRTIFIISMYADSQPRGMAVTISVKCEKISTLSCENKIISFKEMNPPDNIKDTKSDIIFFQRSVPGHDNKMQFESSSYEGYFLAAEKERDLFKLILKKEDELGDRSIMFTVQNED | 1.24 | 0.00149 | 1.21e+06 | 63.9 | 0.0424 | 664000 | 0.17 |
| IL-18 variant SEQ ID NO: 30 with 10 kDa PEG (E6K, V11I, C38A, K53A, T63A, C76A, C127A, C68-10kPEG) (ligand, 10 kDa PEG on Cys 68 (C68-10kPEG), also called 30 + PEG10) YFGKLKSKLSIIRNLNDQVLFIDQGNRPLFEDMTDSDARDNAPRTIFIISMYADSQPRGMAVAISVKCEKISTLSAENKIISFKEMNPPDNIKDTKSDIIFFQRSVPGHDNKMQFESSSYEGYFLAAEKERDLFKLILKKEDELGDRSIMFTVQNED | 8.7 | 0.00105 | 120000 | 239 | 0.0779 | 326000 | – |
